How the values were obtained:
[1] = substrate: C[C@@H](O)[C@H]1C(=O)N2C(C(=O)O)=C(SCCNC=N)C[C@H]12; assay: (§1) Activity of Pseudomonas aeruginosa beta-lactamase IMP-1 by UV spectrophotometric analysis
[2] = substrate: C[C@@H](O)[C@H]1C(=O)N2C(C(=O)[O-])=C(SC3Cn4cnc[n+]4C3)[C@H](C)[C@H]12; assay: as §1
[3] = substrate: C[C@@H](O)[C@H]1C(=O)N2C(C(=O)O)=C(SCCNC=N)C[C@H]12; assay: (§2) Ratio of Kcat to Km for Pseudomonas aeruginosa beta-lactamase IMP-1 by UV spectrophotometric analysis
[4] = substrate: C[C@@H](O)[C@H]1C(=O)N2C(C(=O)O)=C(S[C@@H]3CN[C@H](C(=O)N(C)C)C3)[C@H](C)[C@H]12; assay: as §2
[5] = substrate: C[C@@H](O)[C@H]1C(=O)N2C(C(=O)[O-])=C(SC3Cn4cnc[n+]4C3)[C@H](C)[C@H]12; assay: as §2

B1: Beta-lactamase (Pseudomonas aeruginosa), Q79MP6 (protein)
chain: MSKLSVFFIFLFCSIATAAESLPDLKIEKLDEGVYVHTSFEEVNGWGVVPKHGLVVLVNAEAYLIDTPFTAKDTEKLVTWFVERGYKIKGSISSHFHSDSTGGIEWLNSRSIPTYASELTNELLKKDGKVQATNSFSGVNYWLVKNKIEVFYPGPGHTPDNVVVWLPERKILFGGCFIKPYGLGNLGDANIEAWPKSAKLLKSKYGKAKLVVPSHSEVGDASLLKLTLEQAVKGLNESKKPSKPSN
Km [1]: 35.1 µM
kcat [1]: 63.5 s⁻¹
Km [2]: 167 µM
kcat [2]: 44.7 s⁻¹
kcat/Km [3]: 1.8 µM⁻¹ s⁻¹
kcat/Km [4]: 0.2 µM⁻¹ s⁻¹
kcat/Km [5]: 0.3 µM⁻¹ s⁻¹

Source: ChEMBL document CHEMBL1671717, “In vitro potentiation of carbapenems with ME1071, a novel metallo-beta-lactamase inhibitor, against metallo-beta-lactamase- producing Pseudomonas aeruginosa clinical isolates” (Antimicrob Agents Chemother, 2010)
